For the experiment, the target named is NR1 ATD fusion protein on 293T-ATD cells (human). The experiment can be described thus: flow cytometry on 293T-ATD cells, co-stained with commercial anti-NR1 mAb. In general terms: Flow cytometry measures light scatter and fluorescence of single cells or particles in a stream.
Chain of NR1 ATD fusion protein on 293T-ATD cells (human) (chain, as listed by the source limits assumed): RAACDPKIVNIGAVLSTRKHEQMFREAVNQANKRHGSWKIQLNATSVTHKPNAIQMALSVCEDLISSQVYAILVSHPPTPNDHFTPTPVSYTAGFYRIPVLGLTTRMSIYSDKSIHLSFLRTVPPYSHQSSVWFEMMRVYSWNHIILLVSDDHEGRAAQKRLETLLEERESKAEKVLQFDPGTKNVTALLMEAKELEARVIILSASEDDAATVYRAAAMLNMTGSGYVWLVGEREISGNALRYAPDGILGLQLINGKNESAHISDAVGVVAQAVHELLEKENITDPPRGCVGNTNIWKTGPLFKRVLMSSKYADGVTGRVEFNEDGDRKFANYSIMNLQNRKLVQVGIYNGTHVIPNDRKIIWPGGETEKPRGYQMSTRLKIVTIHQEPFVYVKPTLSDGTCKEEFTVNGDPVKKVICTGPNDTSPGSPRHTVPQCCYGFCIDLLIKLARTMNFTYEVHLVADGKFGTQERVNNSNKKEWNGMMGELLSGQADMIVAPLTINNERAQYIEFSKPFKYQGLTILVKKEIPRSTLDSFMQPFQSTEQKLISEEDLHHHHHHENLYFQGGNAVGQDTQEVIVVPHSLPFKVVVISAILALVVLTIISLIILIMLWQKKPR

In turn, 6A isotype control human mAb (antibody) yielded a Percent GluN1 positive 293T-ATD cells bound of 18% and a double positive cells of 12.4%.

These data come from patent US20220073611A1.
